# “Also recorded” adds a separate entry of the source.
# B1: 1A12: murine anti-hOPN mAb; VH SEQ ID NO: 4, VL SEQ ID NO: 6; from hybridoma 1A12 (antibody, V domains shown)
# VH: QVQLEQSGPELVKPGASVKMSCKSSGYTFTTYVMHWVKQKPGQGLEWIGYINPYNDGSKYNEKFKGKATLTSDKSSNTAYMELSSLTSEDSAVYYCASHYGGSPAYWGQGTLVTVSA
# VL: DILMTQTPLSLPVSLGDQASISCRSSQSLVHSNGNTYLHWYLQKPGQSPKLLIYKVSNRFSGVPDRFSGSGSGTDFTLKISRVEAEDLGVYFCSQSTHVPWTFGGGTKLEIKR
# modifications: amino acid sequence of the heavy chain variable region in 1A12; amino acid sequence of the light chain variable region in 1A12
# notes: murine anti-hOPN mAb; from hybridoma 1A12
# Assays:
# HUVECs = assay: Formation of capillary-like structure in HUVECs on matrigel; assay type: cell-based, human
# Experimental: HUVECs were cultured in the M200 medium containing LCGS to 80% confluence. The matrigel stored at −20° C. was took out the day before experiment and naturally thawed at 4° C. for 3 to 12 hours. To each well of a 96-welt plate was added […] using a pre-cooled pipet with carefully removing the bubbles, wherein the whole procedure was carried on ice. The loaded plate was incubated at 37° C. for 1 hour to gel the matrigel. To each well, 100 μl HUVECs (2×10^4/well) was gently added onto the surface of matrigel. To the treatment groups were further added the anti-hOPN antibodies 1A12, c1A12 and h1A12. The plate was incubated at 37° C. for […], and the formation of the capillary-like structure was observed 6 hours after.
# mouse OPN protein = molecular target: T1, mouse OPN protein (Mus musculus, UniProt P10923); assay: Western blot of 1A12 against mouse OPN protein; assay type: binding
# T1 construct: made in house; host or cells: Pichia (yeast), culture supernatant
# Experimental: 100 ug human OPN and an equal volume of Freund's adjuvant were emulsified, and injected intraperitoneally into BALB/C mice. Boost was given every two weeks at the same dose. […] The mouse spleen lymphocytes were fused with NS-1 cells using the classic PEG method. 96-well plate coated with 10 μg/ml human OPN was used for repeated screening by ELISA method to obtain hybridoma cell line 1A12 which was capable of stably expressing anti-human OPN antibody. The strain of 1A12 was amplified, and administrated to BALB/C mice in 5×10^6 cells/mouse (i.p.). The ascites was collected from the 10th day after the injection. The anti-human OPN monoclonal antibody was purified by affinity chromatography using protein A column.
# MDA-MB-435s cells [1] = assay: Scratch wound healing assay; assay type: cell-based; settings: antibody 25 μg/ml; 24 hours
# Experimental: The MDA-MB-435s cells cultured in a 12-wells plate to almost confluent (90%) washed with PBS and starved overnight with serum-free DMEM. Scratches were made on the cell monolayer using a 10 μl pipette, and PBS was added to wash away the floating cells. The test groups were treated with 25 μg/ml of the murine anti-human OPN antibody 1A12, the human-murine chimeric antibody c1A12 and the humanized antibody h1A12, and the control group, 25 μg/ml of the irrelevant antibody. The cells were incubated in an incubator at 37° C. for 24 hours. The result was expressed as the number of the cells that cross the base line.
# MDA-MB-435s cells [2] = assay: Microvessel density (MVD) in tumor, CD31 staining; assay type: in vivo, nude mice; settings: P<0.01
# Experimental: The tissue of the in situ tumor in mouse was isolated, and speed-frozen in liquid nitrogen. 8 um serial sections were made in a constant cold box frozen section machine, and dried for 5 min, before being fixed with acetone at −20° C. for 30 min, and then stained with IHC. Incubation with the rat anti-mouse monoclonal antibody CD31 (working concentration 1:100) was carried out at 4′C overnight. The secondary antibody was goat anti-rat IgG/PE (working concentration 1:100). After Hochest33258 contrast stain, photographs were taken under the fluorescence microscope.
# The CD31 protein was mainly expressed on the membrane of the vascular endothelial cells, and was expressed in individual vascular endothelial cells and microvessel, intra-tumor microvessel could be visualized with an anti CD31 antibody (FIG. 16).
# MDA-MB-435s cells [3] = assay: Cell adhesion assay on hOPN-coated plate; assay type: cell-based; settings: antibody 25 μg/ml; plate coated with 10 μg/ml hOPN; 2 hrs
# Experimental: MDA-MB-435s was purchased from the Institute of Cell Biology of Chinese Academy of Sciences (Shanghai, China), and 23C3D3 was used as the irrelevant antibody.
# A 96-well plate (Greiner) was coated with 10 μg/ml hOPN (prepared in Example 3) or BSA (SIGMA) at 4° C. overnight, and was then blocked with 1% BSA/PBS at 37° C. for 1 hour to block any non-specific binding sites. The MDA-MB-435s cells were detached using 0.2% EDTA and then re-suspended in 0.25% BSA/DMEM at the concentration of 5×10^5 cells/ml. To each well, 100 μl (5×10^4) MDA-MB-435s cells were added in the presence of various anti-OPN antibodies (25 μg/ml) murine anti-human OPN antibody 1A12, the human-murine chimeric antibody c 1A12 or the humanized antibody h1A12 as treatment groups and the irrelevant antibody 23C3 as control (25 μg/ml). After incubation at 37° C. for 2 hrs, the medium was removed and washed twice with PBS gently. The adherent cells were fixed in 1% formaldehyde at 4° C. for 10 minutes, stained with 0.5% crystal violet after washed with PBS and lysed with 2% Triton X-100 (50 μl). The absorbance was measured at 595 nm.
# [4] = system: chicken embryo chorioallantoic membrane (CAM); assay: Chicken embryo chorioallantoic membrane (CAM) angiogenesis assay; assay type: in vivo; settings: human OPN 250 ng + antibody 1 μg; P<0.01
# Experimental: The Leghorn chicken embryos were purchased from the farm with a fertilization rate of >90%. The 8-day old chicken embryos were selected. After sterilization, a small hole was drilled in the center of the top air chamber of the embryo with a lancet, the surrounding shell with the inner membrane was removed with caution to create an opening of 1 cm×1 cm. Then the following analytes/gelatin sponge were added to the CAM surface: i) PBS; ii) HOPN; iii) human OPN (250 ng); iv) human OPN (250 ng)+the irrelevant antibody as control (1 μg); v) human OPN (250 ng)+the murine anti-OPN antibody 1A12 (1 μg); vi) human OPN (250 ng)+the murine-human chimeric anti-OPN antibody c1A12 (1 μg); vii) human OPN (250 ng)+the humanized anti-OPN antibody h1A1.2 (1 μg).
# The analytes/gelatin sponge were added to the CAM surface, which was far away from the already-formed dense vascular network. […] The number of vessels within an area edging 2 mm from the edges of the carrier slide was counted under a dissecting microscope to study the angiogenesis using the “vascular index” (Ribatti, D., B. Nico, A. Vacca et al., The gelatin sponge-chorioallantoic membrane assay. Nat Protoc, 2006, 1 (1): 85-91). The number of vessel was counted at the same magnification under the dissecting microscope. The result in each sample group was expressed as “mean±standard deviation (x±S)”. […]
# T1 sequence (P10923 17-294): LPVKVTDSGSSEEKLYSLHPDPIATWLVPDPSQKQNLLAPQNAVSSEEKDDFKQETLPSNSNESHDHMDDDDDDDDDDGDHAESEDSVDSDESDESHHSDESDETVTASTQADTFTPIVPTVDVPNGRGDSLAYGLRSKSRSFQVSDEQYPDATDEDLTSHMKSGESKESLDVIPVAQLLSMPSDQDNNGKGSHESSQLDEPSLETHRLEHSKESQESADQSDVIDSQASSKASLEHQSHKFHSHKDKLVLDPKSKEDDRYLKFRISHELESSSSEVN
molecule,measurement,setting,value
B1,potency of forming the capillary-like structure in HUVECs,HUVECs,reduce
same,cross-reaction with the mouse OPN protein,mouse OPN protein,cross-reacted
same,inhibition of the reparation of the scratches and damages,MDA-MB-435s cells [1],effectively inhibit
same,microvessel density (MVD) in tumor versus irrelevant control,MDA-MB-435s cells [2],significantly less; also recorded: effectively inhibit
same,blocking of the binding between MDA-MB-435s cells and hOPN,MDA-MB-435s cells [3],effectively block
same,inhibition of OPN-induced angiogenesis in CAM,[4],significantly inhibit

# Source: patent US20100151486A1, “OSTEOPONTIN FUNCTIONAL EPITOPES, MONOCLONAL ANTIBODIES AGAINST THE EPITOPES AND USES THEREOF” (SHANGHAI NATIONAL ENGINEERING RESEARCH CENTER OF A, priority 2007, published 2010)
